Laboratory results: patent publication US20200115714A1 (GEORGIA TECH RESEARCH, published 2020)
Residue numbers refer to the chain shown, from its start. In names and notes the source's numbering stands.

T1: E. coli fatty acid biosynthesis acyl carrier protein (E. coli AcpP), P0A6A8
T1 chain: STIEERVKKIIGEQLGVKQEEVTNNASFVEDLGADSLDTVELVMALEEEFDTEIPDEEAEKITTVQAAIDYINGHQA

B1: AbTE:G17R with C-terminal His6-tag (pET-28b-AbTE:G17R) (enzyme)
chain: MGKTILILGDSLSAGYRINPEQGWVALLQKRLDQQFPKQHKVINASVSGETTSGALARLPKLLTTYRPNVVVIELGGNDALRGQPPQMIQSNLEKLIQHSQKAKSKVVVFGMKIPPNYGTAYSQAFENNYKVVSQTYQVKLLPFFLDGVAGHKSLMQNDQIHPNAKAQSILLNNAYPYIKGALHHHHHH
notes: Purified protein; also called pET-AbTE:G17R
B2: AbTE:G17R/A165R with C-terminal His6-tag (pET-28b-AbTE:G17R/A165R) (enzyme)
chain: B1 chain with A165R
notes: Purified protein; also called pET-AbTE:G17R/A165R
B3: AbTE:G17E (protein)
chain: MGKTILILGDSLSAGYEINPEQGWVALLQKRLDQQFPKQHKVINASVSGETTSGALARLPKLLTTYRPNVVVIELGGNDALRGQPPQMIQSNLEKLIQHSQKAKSKVVVFGMKIPPNYGTAYSQAFENNYKVVSQTYQVKLLPFFLDGVAGHKSLMQNDQIHPNAKAQSILLNNAYPYIKGAL
B4: AbTE:G17R (protein)
chain: B3 chain with E17R
B5: AbTE:T120R/A121R (protein)
chain: B3 chain with E17G, T120R, A121R
B6: AbTE:G17E/A165R (protein)
chain: B3 chain with A165R
B7: AbTE:G17R/A165R (protein)
chain: B3 chain with E17R, A165R
B8: AbTE:G17R/A165E (protein)
chain: B3 chain with E17R, A165E
B9: AbTE:G17E/A165E (protein)
chain: B3 chain with A165E
B10: Acinetobacter baylyi acyl-ACP thioesterase (AbTE) wild type (protein)
chain: B3 chain with E17G

Columns and labels:
15N-octanoyl-AcpP = molecular target: T2, 15N-octanoyl-AcpP (Escherichia coli, UniProt P0A6A8 2-78, octanoyl group, 15N-labelled (printed as 15N-octanoyl-AcpP); attachment site not given); test: NMR titrations between 15N-octanoyl-AcpP and the AbTEs
T2 construct: Purified, labelled AcpP of the NMR titrations; also called 15N-AcpP; E. coli ACP

[1] = molecular target: T1, E. coli fatty acid biosynthesis acyl …

Row | Binder | secreted MCFAs, E. coli (GC/MS) [1] | secreted MCFAs, E. coli MG1655, 24 hrs (GC/MS) [1] | secreted MCFAs, E. coli, 72 hrs (GC/MS) [1] | further results
1 | B1 |  |  |  | binding result (15N-octanoyl-AcpP): binds
2 | B2 |  |  |  | binding result (15N-octanoyl-AcpP): binds
3 | B3 | ˜21 mg/L and 14 mg/L of secreted MCFAs, respectively |  |  | 
4 | B4 |  | ˜76 mg/L of secreted MCFAs | cultivating E. coli expressing AbTE:G17R for 72 hrs did not result in any changes in MCFA titers | 
5 | B5 |  |  |  | secreted MCFAs, E. coli, 24 hrs (GC/MS) [1]: AbTE:T120R/A121R produced ˜45 mg/L of secreted MCFAs
6 | B6 | This favorable effect in secreted MCFAs or secreted fatty acids of all chain lengths is not seen in AbTE:G17E/A165R |  |  | 
7 | B7 |  | ˜98 mg/L of secreted MCFAs | increased from 98 mg/L to 131 mg/L when extending the cultivation time from 24 hrs to 72 hrs | secreted MCFA titers against AbTE:G17R [1]: a 29% increase in secreted MCFA titers when compared to expression of AbTE:G17R; secreted MCFA titers against AbTE:WT [1]: a more than 3-fold in secreted MCFA titers when compared to AbTE:WT
8 | B8 | AbTE:G17R/A165E resulted in ˜57 mg/L of secreted MCFAs |  |  | 
9 | B9 | ˜21 mg/L and 14 mg/L of secreted MCFAs, respectively |  |  | 
10 | B10 |  | ˜29 mg/L of secreted MCFAs | from ˜29 mg/L to ˜79 mg/L | 
